The target of this test is endogenous Ras (COS cells).

“Myc-Raf (84-87A) (from UniProt P04049) (enzyme)” had an EGF or PMA-stimulated activation of Raf kinase in COS cells of more than 85%.

The record behind these values is patent publication US6103692.
